Results from patent US20240157023A1.

How the values were obtained:
[1] = molecular target: αvβ3 integrin on human lung fibroblasts (human) (UniProt P06756); experiment: cell-based or functional assay
[2] = molecular target: α5β1 integrin on human lung fibroblasts (human) (UniProt P08648); experiment: cell-based or functional assay
Sequence of UniProt P08648 (P08648 42-1049, chain 1 of 2): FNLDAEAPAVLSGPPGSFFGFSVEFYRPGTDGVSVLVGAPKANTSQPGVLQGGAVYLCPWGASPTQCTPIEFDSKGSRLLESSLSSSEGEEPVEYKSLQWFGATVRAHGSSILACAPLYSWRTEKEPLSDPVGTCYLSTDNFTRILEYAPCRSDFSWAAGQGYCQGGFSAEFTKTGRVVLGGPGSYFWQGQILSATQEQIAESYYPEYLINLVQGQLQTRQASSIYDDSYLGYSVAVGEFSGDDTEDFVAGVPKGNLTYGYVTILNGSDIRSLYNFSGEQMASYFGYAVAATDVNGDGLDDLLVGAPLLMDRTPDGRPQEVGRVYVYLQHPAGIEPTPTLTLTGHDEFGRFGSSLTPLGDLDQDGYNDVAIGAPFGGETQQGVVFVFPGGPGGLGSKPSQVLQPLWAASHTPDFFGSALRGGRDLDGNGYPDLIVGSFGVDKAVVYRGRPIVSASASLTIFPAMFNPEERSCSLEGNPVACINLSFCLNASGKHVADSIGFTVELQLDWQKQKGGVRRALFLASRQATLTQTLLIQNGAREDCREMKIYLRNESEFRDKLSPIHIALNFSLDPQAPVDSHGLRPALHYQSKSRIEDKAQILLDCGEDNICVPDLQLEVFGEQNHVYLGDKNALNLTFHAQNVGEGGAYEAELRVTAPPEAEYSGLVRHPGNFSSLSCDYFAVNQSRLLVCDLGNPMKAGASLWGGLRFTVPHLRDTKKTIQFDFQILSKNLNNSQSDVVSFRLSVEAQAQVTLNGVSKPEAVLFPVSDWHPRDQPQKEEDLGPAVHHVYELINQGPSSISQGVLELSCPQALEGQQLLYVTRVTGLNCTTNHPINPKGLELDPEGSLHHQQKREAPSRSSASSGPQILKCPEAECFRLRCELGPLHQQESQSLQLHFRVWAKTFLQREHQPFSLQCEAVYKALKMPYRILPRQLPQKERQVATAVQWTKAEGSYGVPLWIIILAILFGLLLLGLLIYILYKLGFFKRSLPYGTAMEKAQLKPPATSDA
Sequence of UniProt P08648 (P05556 21-798, chain 2 of 2, further chain): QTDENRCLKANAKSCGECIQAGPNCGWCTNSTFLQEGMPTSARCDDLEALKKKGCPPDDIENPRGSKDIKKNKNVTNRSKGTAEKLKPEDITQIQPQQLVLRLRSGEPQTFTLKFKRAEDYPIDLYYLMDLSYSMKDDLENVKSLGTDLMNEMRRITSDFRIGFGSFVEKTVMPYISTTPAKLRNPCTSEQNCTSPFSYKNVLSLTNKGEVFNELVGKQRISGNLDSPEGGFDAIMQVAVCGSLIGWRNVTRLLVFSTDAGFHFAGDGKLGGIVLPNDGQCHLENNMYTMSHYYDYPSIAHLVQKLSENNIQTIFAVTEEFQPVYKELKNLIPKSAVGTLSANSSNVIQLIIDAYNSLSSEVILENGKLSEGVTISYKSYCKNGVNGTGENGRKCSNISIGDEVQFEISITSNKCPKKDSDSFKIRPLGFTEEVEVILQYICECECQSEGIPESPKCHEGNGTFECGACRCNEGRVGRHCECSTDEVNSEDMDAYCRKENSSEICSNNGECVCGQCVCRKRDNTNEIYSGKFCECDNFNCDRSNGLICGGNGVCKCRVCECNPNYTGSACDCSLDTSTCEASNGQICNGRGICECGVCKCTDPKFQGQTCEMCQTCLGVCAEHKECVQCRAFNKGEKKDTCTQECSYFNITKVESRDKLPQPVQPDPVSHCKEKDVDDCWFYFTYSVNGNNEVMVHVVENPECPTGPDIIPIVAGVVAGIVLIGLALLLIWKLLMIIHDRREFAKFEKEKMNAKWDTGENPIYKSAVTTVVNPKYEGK

Sequence of UniProt P06756 (P06756 31-1048, chain 1 of 2): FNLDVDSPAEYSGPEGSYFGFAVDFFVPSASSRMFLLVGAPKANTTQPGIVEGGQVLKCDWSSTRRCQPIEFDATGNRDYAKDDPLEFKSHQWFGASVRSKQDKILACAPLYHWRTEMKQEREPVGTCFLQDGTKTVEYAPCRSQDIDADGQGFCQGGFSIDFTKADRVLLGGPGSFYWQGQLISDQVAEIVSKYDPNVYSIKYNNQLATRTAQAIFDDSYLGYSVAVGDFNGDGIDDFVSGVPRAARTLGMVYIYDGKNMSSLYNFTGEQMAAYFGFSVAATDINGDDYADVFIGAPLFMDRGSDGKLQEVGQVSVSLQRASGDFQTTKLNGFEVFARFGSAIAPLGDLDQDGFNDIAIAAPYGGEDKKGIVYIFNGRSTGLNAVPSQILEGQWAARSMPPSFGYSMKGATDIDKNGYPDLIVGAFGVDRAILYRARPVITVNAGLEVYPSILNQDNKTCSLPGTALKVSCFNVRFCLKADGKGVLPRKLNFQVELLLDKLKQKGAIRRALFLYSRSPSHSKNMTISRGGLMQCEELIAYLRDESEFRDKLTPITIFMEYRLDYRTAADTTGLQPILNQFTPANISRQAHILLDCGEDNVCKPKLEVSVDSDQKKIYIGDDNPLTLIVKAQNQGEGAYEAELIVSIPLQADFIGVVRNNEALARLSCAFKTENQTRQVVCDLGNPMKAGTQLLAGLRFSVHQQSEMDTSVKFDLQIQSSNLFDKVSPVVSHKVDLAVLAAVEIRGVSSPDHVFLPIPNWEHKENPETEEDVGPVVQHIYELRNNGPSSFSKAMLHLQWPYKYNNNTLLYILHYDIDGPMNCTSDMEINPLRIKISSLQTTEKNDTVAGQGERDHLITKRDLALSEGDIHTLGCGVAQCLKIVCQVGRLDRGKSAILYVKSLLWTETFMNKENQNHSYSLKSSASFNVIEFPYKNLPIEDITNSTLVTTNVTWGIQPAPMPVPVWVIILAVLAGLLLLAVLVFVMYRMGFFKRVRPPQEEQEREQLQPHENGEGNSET
Sequence of UniProt P06756 (P05106 27-788, chain 2 of 2, further chain): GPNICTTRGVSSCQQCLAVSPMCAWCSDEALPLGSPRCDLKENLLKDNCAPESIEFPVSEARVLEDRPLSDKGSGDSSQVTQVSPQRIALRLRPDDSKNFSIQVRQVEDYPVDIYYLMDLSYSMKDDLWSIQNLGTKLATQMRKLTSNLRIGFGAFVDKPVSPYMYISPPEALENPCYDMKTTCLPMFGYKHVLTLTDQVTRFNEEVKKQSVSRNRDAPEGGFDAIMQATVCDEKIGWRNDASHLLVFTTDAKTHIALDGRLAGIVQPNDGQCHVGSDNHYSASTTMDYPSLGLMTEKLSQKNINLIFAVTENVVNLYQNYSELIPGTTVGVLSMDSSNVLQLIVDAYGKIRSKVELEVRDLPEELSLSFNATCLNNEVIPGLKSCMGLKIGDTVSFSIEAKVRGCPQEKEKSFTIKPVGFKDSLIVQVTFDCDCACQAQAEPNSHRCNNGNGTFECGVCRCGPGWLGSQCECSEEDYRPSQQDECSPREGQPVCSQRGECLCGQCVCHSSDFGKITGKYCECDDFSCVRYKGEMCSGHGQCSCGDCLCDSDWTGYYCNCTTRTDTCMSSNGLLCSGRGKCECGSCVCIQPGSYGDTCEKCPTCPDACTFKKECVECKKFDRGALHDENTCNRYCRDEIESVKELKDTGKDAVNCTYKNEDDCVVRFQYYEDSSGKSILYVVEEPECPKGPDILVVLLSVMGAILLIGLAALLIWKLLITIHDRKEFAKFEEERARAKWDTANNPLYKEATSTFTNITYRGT

Substance	fibroblast spread area on soft elastic Fn4G hydrogels (3 days) [1] [µm^2]	average fibroblast spread area on Fn9*10 hydrogels (all stiffness and viscoelasticity groups, 3 days) [2] [µm^2]
Fn4G (recombinant fibronectin fragment of FnIII9 and FnIII10 with four glycine residues inserted in the linker region between them) (ligand)	2060	
Fn9*10 (recombinant fibronectin fragment of FnIII9 and FnIII10 with a leucine to proline point mutation at position 1408) (ligand)		780
